Columns and labels:
murine PD1 antigen = biological target: T1, murine PD1 antigen (murine, UniProt Q02242 25-167, limits assumed); assay: ELISA, coated murine PD1
T1 sequence (looked up): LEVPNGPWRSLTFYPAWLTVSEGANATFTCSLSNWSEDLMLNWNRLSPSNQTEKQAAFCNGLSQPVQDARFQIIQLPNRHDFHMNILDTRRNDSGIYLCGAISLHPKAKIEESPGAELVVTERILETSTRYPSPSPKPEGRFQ

[1] = biological target: T2, cynomolgus monkey PD1 antigen (cynomolgus monkey, UniProt B0LAJ3 25-170); assay: ELISA, coated cynomolgus PD1
T2 construct: also called cynomolgus PD1
T2 sequence (B0LAJ3 entry or part of it limits assumed, form in doubt): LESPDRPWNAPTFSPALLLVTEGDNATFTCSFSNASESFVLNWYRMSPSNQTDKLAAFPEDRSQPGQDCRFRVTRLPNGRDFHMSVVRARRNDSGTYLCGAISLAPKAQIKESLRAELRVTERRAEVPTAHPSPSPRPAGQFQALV

B1: IgG1_WT nivolumab (antibody, V domains shown)
VH: QVQLVESGGGVVQPGRSLRLDCKASGITFSNSGMHWVRQAPGKGLEWVAVIWYDGSKRYYADSVKGRFTISRDNSKNTLFLQMNSLRAEDTAVYYCATNDDYWGQGTLVTVSS
VL: EIVLTQSPATLSLSPGERATLSCRASQSVSSYLAWYQQKPGQAPRLLIYDASNRATGIPARFSGSGSGTDFTLTISSLEPEDFAVYYCQQSSNWPRTFGQGTKVEIK
Murine PD1 antigen
  OD 450 nm at 0.2 µg/ml: 0.305 OD 450 nm
[1]
  OD 450 nm at 0.2 µg/ml: 2.39 OD 450 nm
